{"source": "patent US20170112894A1", "about": "(CANBAS, published 2017)", "binders": {"B1": {"name": "CBP440 (peptide)", "peptide": "YGRKKRRQRRRXFXYY", "modifications": "(l-Tyr)(l-Gly)(l-Arg)(l-Lys)(l-Lys)(l-Arg)(l-Arg)(l-Gln)(l-Arg)(l-Arg)(l-Arg)(l-Cha)(l-Phe-2,3,4,5,6-F)(l-aminoundecanoic acid)(l-Tyr)(l-Tyr): Cha = cyclohexyl-alanine; Phe-2,3,4,5,6-F = pentafluoro-phenylalanine; aminoundecanoic acid spacer"}}, "assay_in_all_cases": "cell-based or functional assay", "key": {"[1]": {"target": "T1, baculovirus derived recombinant human full length Chk1 with histidine tag (human, UniProt O14757 1-476)", "T1 sequence": "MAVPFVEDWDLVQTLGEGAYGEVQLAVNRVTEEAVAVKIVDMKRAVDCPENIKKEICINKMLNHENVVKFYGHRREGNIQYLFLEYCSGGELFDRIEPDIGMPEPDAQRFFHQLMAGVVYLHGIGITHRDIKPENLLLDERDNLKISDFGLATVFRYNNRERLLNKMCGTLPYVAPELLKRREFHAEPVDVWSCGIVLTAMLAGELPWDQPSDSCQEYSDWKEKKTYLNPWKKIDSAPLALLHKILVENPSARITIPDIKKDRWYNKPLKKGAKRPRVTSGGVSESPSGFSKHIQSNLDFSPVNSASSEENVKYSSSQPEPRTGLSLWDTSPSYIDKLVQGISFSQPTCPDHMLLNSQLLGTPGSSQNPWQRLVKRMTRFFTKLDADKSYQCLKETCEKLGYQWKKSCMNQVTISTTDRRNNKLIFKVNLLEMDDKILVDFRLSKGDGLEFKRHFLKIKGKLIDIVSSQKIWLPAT"}, "[2]": {"target": "E. Coli derived recombinant human full length Chk2 fused with GST (human, UniProt O96017 1-543)", "sequence (O96017 whole entry, the tested form may be a part)": "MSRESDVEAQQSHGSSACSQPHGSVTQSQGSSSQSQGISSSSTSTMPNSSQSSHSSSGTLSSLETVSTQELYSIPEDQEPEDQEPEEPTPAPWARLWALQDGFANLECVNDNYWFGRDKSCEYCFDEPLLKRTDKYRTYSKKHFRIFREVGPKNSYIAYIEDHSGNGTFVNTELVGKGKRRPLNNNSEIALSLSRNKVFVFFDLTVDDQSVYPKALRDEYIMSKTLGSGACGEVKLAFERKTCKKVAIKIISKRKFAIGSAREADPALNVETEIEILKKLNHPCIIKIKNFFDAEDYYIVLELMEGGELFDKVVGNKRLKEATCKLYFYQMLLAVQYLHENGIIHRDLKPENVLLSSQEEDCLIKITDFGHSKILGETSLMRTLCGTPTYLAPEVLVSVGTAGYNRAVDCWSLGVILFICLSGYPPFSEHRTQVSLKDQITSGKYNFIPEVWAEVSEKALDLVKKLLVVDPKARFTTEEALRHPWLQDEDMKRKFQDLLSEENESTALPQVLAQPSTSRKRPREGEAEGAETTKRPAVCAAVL"}, "[3]": {"target": "PKA"}, "[4]": {"target": "purified CHK2 kinase"}}, "note": "Square brackets hold non-standard residues; d marks the D form. Ends that are not written are not given here. dPhe(4-NO2) = N[C@H](Cc1ccc([N+](=O)[O-])cc1)C(=O)O; dPhe(F5) = N[C@H](Cc1c(F)c(F)c(F)c(F)c1F)C(=O)O; dBpa = N[C@H](Cc1ccc(C(=O)c2ccccc2)cc1)C(=O)O; dCha = N[C@H](CC1CCCCC1)C(=O)O"}
{"binder": "[dBpa][dD][dS][dW][dS][dPhe(F5)][dCha][dR][dR][dR][dQ][dR][dR]", "note": "[CBP505]", "values": [{"measurement": "Kinase inhibition (phosphorylation of serine 216 on GST-Cdc25C 167-267, enzyme linked immune assay)", "setting": "[1]", "result": 63.4}, {"measurement": "Kinase inhibition (phosphorylation of serine 216 on GST-Cdc25C 167-267, enzyme linked immune assay)", "setting": "[2]", "result": "> 100"}]}
{"binder": "[dY][dBpa][dS][dW][dS][dPhe(F5)][dCha][dR][dR][dR][dQ][dR][dR]", "note": "[CBP500]", "values": [{"measurement": "Kinase inhibition (phosphorylation of serine 216 on GST-Cdc25C 167-267, enzyme linked immune assay)", "setting": "[1]", "result": 5.6}, {"measurement": "Kinase inhibition (phosphorylation of serine 216 on GST-Cdc25C 167-267, enzyme linked immune assay)", "setting": "[2]", "result": 8}]}
{"binder": "B1", "values": [{"measurement": "IC50, kinase inhibition (PepTag Non-Radioactive Protein Kinase Assay)", "setting": "[3]", "result": 180, "unit": "µM"}, {"measurement": "IC50, kinase inhibition (PepTag Non-Radioactive Protein Kinase Assay)", "setting": "[4]", "result": 8, "unit": "µM"}]}
{"binder": "[dBpa][dS][dW][dS][dPhe(4-NO2)][dCha][dR][dR][dR][dQ][dR][dR]", "note": "[CBP603]", "values": [{"measurement": "Kinase inhibition (phosphorylation of serine 216 on GST-Cdc25C 167-267, enzyme linked immune assay)", "setting": "[1]", "result": 15.5}, {"measurement": "Kinase inhibition (phosphorylation of serine 216 on GST-Cdc25C 167-267, enzyme linked immune assay)", "setting": "[2]", "result": 18.1}]}
{"binder": "[dBpa][dS][dW][dS][dPhe(F5)][dCha][dR][dR][dR][dQ][dR][dR]", "note": "[CBP501]", "values": [{"measurement": "Kinase inhibition (phosphorylation of serine 216 on GST-Cdc25C 167-267, enzyme linked immune assay)", "setting": "[1]", "result": 7.9}, {"measurement": "Kinase inhibition (phosphorylation of serine 216 on GST-Cdc25C 167-267, enzyme linked immune assay)", "setting": "[2]", "result": 18.6}]}
{"binder": "[dY][dY][dS]G[dS][dR][dPhe(F5)][dCha][dR][dR][dR][dQ][dR][dR][dK][dK][dR]G[dY]", "note": "[CBP450]", "values": [{"measurement": "IC50, kinase inhibition (PepTag Non-Radioactive Protein Kinase Assay)", "setting": "[3]", "result": "> 400", "unit": "µM"}, {"measurement": "IC50, kinase inhibition (PepTag Non-Radioactive Protein Kinase Assay)", "setting": "[4]", "result": 10, "unit": "µM"}]}
